Reference: paper PMC4670554 (Nuclear medicine and biology, 2014)

Legend:
in vivo = assay: in vivo; parameters: species or system mice; conditions: female, athymic nu/nu nude, mouse, total radioactivity
U87MG gliobastoma tumors = assay: in vivo; parameters: species or system mice; conditions: mouse

Question: With N=C(N)NCCC[C@@H]1NC(=O)[C@H](CCCCNC(=S)Nc2ccc(CCCCCC(CN3CCN(CC(=O)O)CCN(CC(=O)O)CC3)N(CC(=O)O)CC(=O)O)cc2)NC(=O)[C@@H](Cc2ccc(O)cc2)NC(=O)[C@H](CC(=O)O)NC(=O)CNC1=O (stereo partly shown) [^177Lu-5p-C-NETA-c(RGDyK), metal not drawn] as the molecule, how does the tissue uptake at 4 h (in vivo; 100 ug, Tumor uptake, blocked) read?
Answer: 0.6 ± 0.14 %ID/g

Question: And the tissue uptake at 1 h (in vivo; Liver uptake)?
Answer: 1.59 ± 0.22 %ID/g

Question: What about the tissue uptake at 24 h (in vivo; Liver uptake) of the same molecule?
Answer: 0.32 ± 0.06 %ID/g

Question: What about the tissue uptake at 1 h (in vivo; Radioactivity in the blood) of the same molecule?
Answer: 0.46 ± 0.06 %ID/g

Question: What about the tissue uptake at 4 h (in vivo; Tumor uptake) of the same molecule?
Answer: 1.15 ± 0.27 %ID/g

Question: And the tissue uptake at 24 h (in vivo; Tumor uptake)?
Answer: 10.7 ± 0.38 %ID/g

Question: And the “Radioactivity in the blood” value (U87MG gliobastoma tumors)?
Answer: completely cleared
